The record followed here is publication doi:10.1101/2023.03.24.534125 (bioRxiv, 2023).

For this assay, the target named is T1, CRISPR array binding protein 1, Cbp1 (S. solfataricus P2, SSO0454) (S. solfataricus P2, UniProt Q97ZW9 1-150).
T1 sequence (looked up): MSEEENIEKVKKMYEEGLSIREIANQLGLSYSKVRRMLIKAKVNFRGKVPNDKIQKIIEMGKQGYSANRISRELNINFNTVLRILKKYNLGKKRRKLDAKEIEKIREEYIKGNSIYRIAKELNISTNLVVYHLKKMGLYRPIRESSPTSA
As to the kind of experiment: native gel or EMSA. Background: A gel shift assay detects complexes by their altered migration in electrophoresis.

B1: Cren7 (S. solfataricus, SSO6901) (natural protein, UniProt Q97ZE3 1-60, looked up)
chain: MSSGKKPVKVKTPAGKEAELVPEKVWALAPKGRKGVKIGLFKDPETGKYFRHKLPDDYPI
In general, stoichiometry N refers to the number of molecules, sites or subunits per partner or assembly. In the case of B1, the “stoichiometry N” value turned out to be 2.
